The record followed here is US10414821.

Test [1] deals with PD-1 (UniProt Q15116). In words: ELISA.
Target sequence in this assay (Q15116 25-170): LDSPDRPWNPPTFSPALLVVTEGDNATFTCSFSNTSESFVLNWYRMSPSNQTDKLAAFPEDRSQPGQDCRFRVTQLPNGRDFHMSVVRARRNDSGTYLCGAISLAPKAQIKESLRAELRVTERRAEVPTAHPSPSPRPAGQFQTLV
Test [2] deals with PD-1 (UniProt Q15116). The test is described as follows: blocking ELISA (PD-1/PD-L1).
Target sequence in this assay (Q15116 25-167): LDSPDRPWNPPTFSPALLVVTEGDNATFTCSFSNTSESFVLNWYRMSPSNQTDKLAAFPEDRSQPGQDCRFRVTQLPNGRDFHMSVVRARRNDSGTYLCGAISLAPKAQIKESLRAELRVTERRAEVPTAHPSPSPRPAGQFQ

In the test with PD-1 [1], MK3475 returned an EC50 of 0.08 nM.

MK-3475: the IC50 in the test with PD-1 [2] is 0.603 nM.
